In PMC7756681, “Functional Hybrid Molecules for the Visualization of Cancer: PESIN‐Homodimers Combined with Multimodal Molecular Imaging Probes for Positron Emission Tomography and Optical Imaging: Suited for Tracking of GRPR‐Positive Malignant Tissue” (Chemistry (Weinheim an Der Bergstrasse, Germany), 2020):

Experiments:
[1] = LogD determination of 68Ga-labeled MIUs and bioconjugates (water/1-octanol partition, γ-counter); details: pH 7.4
Description: Following the synthesis of the MIUs 6 a–13 a and the corresponding bioconjugates 6–13, the radiolabeling efficiency of the compounds with ^68Ga^3+ was investigated. […] In the following, we investigated the lipophilicity of the MIUs [^68Ga]6 a–[^68Ga]13 a and their bioconjugates [^68Ga]6–[^68Ga]13 (Table 1 and Figure 2 C,D).
A solution of the respective multimodal imaging unit (MIU) 6a – 13a (5 nmol) or multimodal imaging agent 6 - 14 (5 nmol) in H2O (Tracepur quality, 1mM) was added to 90 - 120 MBq of [68Ga]GaCl in a solution obtained by fractioned elution of an IGG 68Ge/68Ga generator system […]
with HCl (0.1 M, 1.6 mL) and subsequent titration to pH 3.5 – 4.2 by addition of sodium acetate solution (1.25 M, 50 – 75 µL). All labeling experiments were performed by addition of 2 mg ascorbic acid to suppress radiolysis-induced product fragmentation. In the labeling experiments of the MIUs 6a – 13a, 1 - 4 mg TCEP x HCl were added and the pH was adjusted to 3.5 – 4.2 by addition of sodium acetate solution (1.25 M). After reaction for 10 min at 45°C, the reaction mixtures were analyzed by analytical radio-HPLC.
For 68Ga-6/6a – 68Ga-13/13a, the water/1-octanol partition coefficient (log ) was determined by […]
adding 5 µL of the respectively 68Ga-labeled compound (0.8 – 1.2 MBq) to a mixture of phosphate buffer (0.05 M, pH 7.4, 795 µL) and 1-octanol (800 µL). The mixtures were intensively shaken for 5 minutes on a vibrating plate. After subsequent centrifugation at 13 000 rpm for 5 min, 125 µL were taken from each phase and measured in a γ-counter. The logD values were calculated from three or four independent experiments, each performed in triplicate.
For 14, the water/1-octanol partition coefficient (logD) was determined by semipreparative HPLC.
For this purpose, 10 µL solution (c = 5 x 10-4 mol/L) of the substance were added to a mixture of 1 mL 1-octanol and 990 µL phosphate buffered solution (0.05 M, pH 7.4) and the mixture was vigorously shaken for 5 minutes. After centrifugation, the phases were separated and both phases were analyzed by semipreparative HPLC. The logD was determined by three separate measurements, each experiment performed in triplicate.
(§1) Competitive receptor binding assay
(§2) Stably GRPR-transfected Human Embryonic Kidney 293 cells (HEK-GRPR) were cultured at 37°C in Dulbecco’s Modified Eagle’s Medium (DMEM, high glucose, GlutaMax-I, 500 mL) […]
(§3) a humidified atmosphere containing 5 % CO2. The medium was exchanged every two or three days and cells were split at >75 % confluence. In vitro binding affinities were determined via competitive displacement experiments which were performed at least trice, each experiment performed in triplicate. A Millipore Multiscreen punch kit and Millipore 96 well filter plates (pore size 1.2 µm) were used. The plates were incubated with PBS/BSA (1%) solution (each well 200 µL) for one hour before use. HEK-GRPR cells were harvested and suspended carefully in Opti- […]

[2] = Photophysical properties (absorption and emission spectra in PBS); assay type: physicochemical; details: for Log ϵ / λ max / Stokes shift: 1×10^−5 mol L^−1
Source text: After studying the chemical and biological properties of the MIUs and their corresponding multimodal imaging agents, the photophysical properties of the substances were finally under investigation. Here, we found no significant decrease or shift of the optical and fluorescent characteristics of the bioconjugates compared to the MIUs (Table 2).
Fig. S27 Normalized absorption and emission spectra of 7 (left) and 7a (right), recorded in PBS
at a concentration of c = 1.0 x 10-5 mol/L, emission wavelength stated in the graph (bottom, left
Fig. S28 Normalized absorption and emission spectra of 8 (left) and 8a (right), recorded in PBS
Fig. S29 Normalized absorption and emission spectra of 9 (left) and 9a (right), recorded in PBS […]
Fig. S30 Normalized absorption and emission spectra of 10 (left) and 10a (right), recorded in
PBS at a concentration of c = 1.0 x 10-5 mol/L, emission wavelength stated in the graph (bottom,
Fig. S31 Normalized absorption and emission spectra of 11 (left) and 11a (right), recorded in
Fig. S32 Normalized absorption and emission spectra of 12 (left) and 12a (right), recorded in […]

[3] = molecular target: T1, gastrin-releasing peptide receptor (GRPR) (Homo sapiens, UniProt P30550); assay: Competitive displacement assay on stably GRPR-transfected HEK cells using [125I]-Tyr4-bombesin; assay type: binding; details: [125I]-Tyr4-bombesin as competitor, 1 h, ambient temperature, read-out: IC50 (GRPR affinity)
T1 construct: host or cells: Human Embryonic Kidney 293 cells (HEK-GRPR)
Description: as §1, §2
as §3, with “Opti-MEM I (GlutaMAX I) medium. 50 µL of a cell suspension containing […] were seeded in each well. To this, a total volume of 50 µL was added to each well, containing 25 µL (0.012” for “Opti-”
The competitor was added in 11 increasing concentrations ranging from 0.25 – 500 nM for 6 – […]
binding of the radioligand. After one hour of incubation at ambient temperature, the solution was filtrated and the filters were washed with cold PBS (3 times). The filters were collected and […]

[4] = 1×10^−5 mol L^−1, excitation wavelength λex=400 nm

T1 sequence (P30550 whole entry, species assumed): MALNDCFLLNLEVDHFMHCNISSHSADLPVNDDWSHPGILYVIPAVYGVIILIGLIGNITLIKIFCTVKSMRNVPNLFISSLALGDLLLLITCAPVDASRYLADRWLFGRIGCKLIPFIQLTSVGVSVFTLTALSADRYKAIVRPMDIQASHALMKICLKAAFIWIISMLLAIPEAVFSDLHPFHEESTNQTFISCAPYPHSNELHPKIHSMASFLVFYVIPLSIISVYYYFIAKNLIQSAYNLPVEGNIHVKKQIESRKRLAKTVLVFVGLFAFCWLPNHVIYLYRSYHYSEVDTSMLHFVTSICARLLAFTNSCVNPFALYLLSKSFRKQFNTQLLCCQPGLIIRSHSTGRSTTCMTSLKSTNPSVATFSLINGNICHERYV

SMILES | IC50 [3] | logD [1] | Log ϵ [2] | λ max [2] | λem [2, 4] | Stokes shift [2] | λem ([2]; 1×10^−5 mol L^−1, excitation wavelength λex=500 nm)
CSCC[C@H](NC(=O)[C@H](CC(C)C)NC(=O)[C@H](Cc1c[nH]cn1)NC(=O)CNC(=O)[C@@H](NC(=O)[C@H](C)NC(=O)[C@H](Cc1c[nH]c2ccccc12)NC(=O)[C@H](CCC(N)=O)NC(=O)CCOCCOCCOCCOCCNC(=O)CON=Cc1ccc(C(=O)NCCCN(CCCNC(=O)c2ccc(C=NOCC(=O)NCCOCCOCCOCCOCCC(=O)N[C@@H](CCC(N)=O)C(=O)N[C@@H](Cc3c[nH]c4ccccc34)C(=O)N[C@@H](C)C(=O)N[C@H](C(=O)NCC(=O)N[C@@H](Cc3c[nH]cn3)C(=O)N[C@@H](CC(C)C)C(=O)N[C@@H](CCSC)C(N)=O)C(C)C)cc2)CC(=O)N[C@H](CSC2CC(=O)N(CCN3C(=O)CC(SC[C@H](NC(=O)[C@H](CCCCNc4ccc([N+](=O)[O-])c5nonc45)NC(=O)CC[C@H](C(=O)O)N4CCN(CC(=O)O)CCN(CC(=O)O)CC4)C(N)=O)C3=O)C2=O)C(=O)NCCOCCOCC(N)=O)cc1)C(C)C)C(N)=O (stereo partly shown) [Compound 10] |  | -1.42 ± 0.24 | 4.10 M ^−1 cm^−1 | 490 nm | 545 nm |  | 
CSCC[C@H](NC(=O)[C@H](CC(C)C)NC(=O)[C@H](Cc1c[nH]cn1)NC(=O)CNC(=O)[C@@H](NC(=O)[C@H](C)NC(=O)[C@H](Cc1c[nH]c2ccccc12)NC(=O)[C@H](CCC(N)=O)NC(=O)CCOCCOCCOCCOCCNC(=O)CON=Cc1ccc(C(=O)NCCCN(CCCNC(=O)c2ccc(C=NOCC(=O)NCCOCCOCCOCCOCCC(=O)N[C@@H](CCC(N)=O)C(=O)N[C@@H](Cc3c[nH]c4ccccc34)C(=O)N[C@@H](C)C(=O)N[C@H](C(=O)NCC(=O)N[C@@H](Cc3c[nH]cn3)C(=O)N[C@@H](CC(C)C)C(=O)N[C@@H](CCSC)C(N)=O)C(C)C)cc2)CC(=O)N[C@H](CSC2CC(=O)N(CCN3C(=O)CC(SC[C@H](NC(=O)[C@H](CCCC[n+]4c(C)cc(/C=C/C=C/c5ccc(N(C)C)cc5)cc4C)NC(=O)CC[C@H](C(=O)O)N4CCN(CC(=O)O)CCN(CC(=O)O)CC4)C(N)=O)C3=O)C2=O)C(=O)NCCOCCOCC(N)=O)cc1)C(C)C)C(N)=O (stereo partly shown) [Compound 8] | 0.0155 ± 0.00076 µM | -1.73 ± 0.2 | 4.16 M ^−1 cm^−1 | 470 nm | 700 nm | 230 nm | 
CSCC[C@H](NC(=O)[C@H](CC(C)C)NC(=O)[C@H](Cc1c[nH]cn1)NC(=O)CNC(=O)[C@@H](NC(=O)[C@H](C)NC(=O)[C@H](Cc1c[nH]c2ccccc12)NC(=O)[C@H](CCC(N)=O)NC(=O)CCOCCOCCOCCOCCNC(=O)CON=Cc1ccc(C(=O)NCCCN(CCCNC(=O)c2ccc(C=NOCC(=O)NCCOCCOCCOCCOCCC(=O)N[C@@H](CCC(N)=O)C(=O)N[C@@H](Cc3c[nH]c4ccccc34)C(=O)N[C@@H](C)C(=O)N[C@H](C(=O)NCC(=O)N[C@@H](Cc3c[nH]cn3)C(=O)N[C@@H](CC(C)C)C(=O)N[C@@H](CCSC)C(N)=O)C(C)C)cc2)CC(=O)N[C@H](CSC2CC(=O)N(CCN3C(=O)CC(SC[C@H](NC(=O)[C@H](CCCC[n+]4c(C)cc(/C=C/c5ccc(N(C)C)cc5)cc4C)NC(=O)CC[C@H](C(=O)O)N4CCN(CC(=O)O)CCN(CC(=O)O)CC4)C(N)=O)C3=O)C2=O)C(=O)NCCOCCOCC(N)=O)cc1)C(C)C)C(N)=O (stereo partly shown) [Compound 7] | 0.0165 ± 0.00025 µM | -2 ± 0.01 | 4.23 M ^−1 cm^−1 | 460 nm | 600 nm | 140 nm | 

Second part, led by results:

IC50 [3] | SMILES | logD [1] | Log ϵ [2] | λ max [2] | λem [2, 4] | Stokes shift [2] | λem ([2]; 1×10^−5 mol L^−1, excitation wavelength λex=500 nm)
0.018 ± 0.00086 µM | CSCC[C@H](NC(=O)[C@H](CC(C)C)NC(=O)[C@H](Cc1c[nH]cn1)NC(=O)CNC(=O)[C@@H](NC(=O)[C@H](C)NC(=O)[C@H](Cc1c[nH]c2ccccc12)NC(=O)[C@H](CCC(N)=O)NC(=O)CCOCCOCCOCCOCCNC(=O)CON=Cc1ccc(C(=O)NCCCN(CCCNC(=O)c2ccc(C=NOCC(=O)NCCOCCOCCOCCOCCC(=O)N[C@@H](CCC(N)=O)C(=O)N[C@@H](Cc3c[nH]c4ccccc34)C(=O)N[C@@H](C)C(=O)N[C@H](C(=O)NCC(=O)N[C@@H](Cc3c[nH]cn3)C(=O)N[C@@H](CC(C)C)C(=O)N[C@@H](CCSC)C(N)=O)C(C)C)cc2)CC(=O)N[C@H](CSC2CC(=O)N(CCN3C(=O)CC(SC[C@H](NC(=O)[C@H](CCCCNC(=O)c4ccccc4C4=c5cc6c7c(c5Oc5c4cc4c8c5CCCN8CCC4)CCC[N+]=7CCC6)NC(=O)CC[C@H](C(=O)O)N4CCN(CC(=O)O)CCN(CC(=O)O)CC4)C(N)=O)C3=O)C2=O)C(=O)NCCOCCOCC(N)=O)cc1)C(C)C)C(N)=O (stereo partly shown) [Compound 13] | -0.81 ± 0.05 | 4.57 M ^−1 cm^−1 | 590 nm |  | 20 nm | 610 nm
0.0209 ± 0.00167 µM | CSCC[C@H](NC(=O)[C@H](CC(C)C)NC(=O)[C@H](Cc1c[nH]cn1)NC(=O)CNC(=O)[C@@H](NC(=O)[C@H](C)NC(=O)[C@H](Cc1c[nH]c2ccccc12)NC(=O)[C@H](CCC(N)=O)NC(=O)CCOCCOCCOCCOCCNC(=O)CON=Cc1ccc(C(=O)NCCCN(CCCNC(=O)c2ccc(C=NOCC(=O)NCCOCCOCCOCCOCCC(=O)N[C@@H](CCC(N)=O)C(=O)N[C@@H](Cc3c[nH]c4ccccc34)C(=O)N[C@@H](C)C(=O)N[C@H](C(=O)NCC(=O)N[C@@H](Cc3c[nH]cn3)C(=O)N[C@@H](CC(C)C)C(=O)N[C@@H](CCSC)C(N)=O)C(C)C)cc2)CC(=O)N[C@H](CSC2CC(=O)N(CCN3C(=O)CC(SC[C@H](NC(=O)[C@H](CCCCNC(=O)c4cc5cc6c7c(c5oc4=O)CCCN7CCC6)NC(=O)CC[C@H](C(=O)O)N4CCN(CC(=O)O)CCN(CC(=O)O)CC4)C(N)=O)C3=O)C2=O)C(=O)NCCOCCOCC(N)=O)cc1)C(C)C)C(N)=O (stereo partly shown) [Compound 12] | -1.72 ± 0.13 | 4.30 M ^−1 cm^−1 | 455 nm | 495 nm | 40 nm | 
0.0262 ± 0.00089 µM | CSCC[C@H](NC(=O)[C@H](CC(C)C)NC(=O)[C@H](Cc1c[nH]cn1)NC(=O)CNC(=O)[C@@H](NC(=O)[C@H](C)NC(=O)[C@H](Cc1c[nH]c2ccccc12)NC(=O)[C@H](CCC(N)=O)NC(=O)CCOCCOCCOCCOCCNC(=O)CON=Cc1ccc(C(=O)NCCCN(CCCNC(=O)c2ccc(C=NOCC(=O)NCCOCCOCCOCCOCCC(=O)N[C@@H](CCC(N)=O)C(=O)N[C@@H](Cc3c[nH]c4ccccc34)C(=O)N[C@@H](C)C(=O)N[C@H](C(=O)NCC(=O)N[C@@H](Cc3c[nH]cn3)C(=O)N[C@@H](CC(C)C)C(=O)N[C@@H](CCSC)C(N)=O)C(C)C)cc2)CC(=O)N[C@H](CSC2CC(=O)N(CCN3C(=O)CC(SC[C@H](NC(=O)[C@H](CCCCNS(=O)(=O)c4cccc5c(N(C)C)cccc45)NC(=O)CC[C@H](C(=O)O)N4CCN(CC(=O)O)CCN(CC(=O)O)CC4)C(N)=O)C3=O)C2=O)C(=O)NCCOCCOCC(N)=O)cc1)C(C)C)C(N)=O (stereo partly shown) [Compound 9] | -1.59 ± 0.06 |  |  | 540 nm |  | 
